{"source": "patent US20260258110A1", "about": "“VOLTAGE GATED SODIUM CHANNEL-SPECIFIC PEPTIDE APTAMERS AND USES THEREOF” (The Medical College of Wisconsin, Inc., priority 2023, published 2026)", "key": {"[1]": {"molecular_target": "T1, human Nav1.8 (Homo sapiens, UniProt Q9Y5Y9, DEL1030-1030/M1713V)", "T1 construct": "cell line made in house", "T1 sequence (Q9Y5Y9 with tags, fused parts or gaps DEL1030-1030/M1713V)": "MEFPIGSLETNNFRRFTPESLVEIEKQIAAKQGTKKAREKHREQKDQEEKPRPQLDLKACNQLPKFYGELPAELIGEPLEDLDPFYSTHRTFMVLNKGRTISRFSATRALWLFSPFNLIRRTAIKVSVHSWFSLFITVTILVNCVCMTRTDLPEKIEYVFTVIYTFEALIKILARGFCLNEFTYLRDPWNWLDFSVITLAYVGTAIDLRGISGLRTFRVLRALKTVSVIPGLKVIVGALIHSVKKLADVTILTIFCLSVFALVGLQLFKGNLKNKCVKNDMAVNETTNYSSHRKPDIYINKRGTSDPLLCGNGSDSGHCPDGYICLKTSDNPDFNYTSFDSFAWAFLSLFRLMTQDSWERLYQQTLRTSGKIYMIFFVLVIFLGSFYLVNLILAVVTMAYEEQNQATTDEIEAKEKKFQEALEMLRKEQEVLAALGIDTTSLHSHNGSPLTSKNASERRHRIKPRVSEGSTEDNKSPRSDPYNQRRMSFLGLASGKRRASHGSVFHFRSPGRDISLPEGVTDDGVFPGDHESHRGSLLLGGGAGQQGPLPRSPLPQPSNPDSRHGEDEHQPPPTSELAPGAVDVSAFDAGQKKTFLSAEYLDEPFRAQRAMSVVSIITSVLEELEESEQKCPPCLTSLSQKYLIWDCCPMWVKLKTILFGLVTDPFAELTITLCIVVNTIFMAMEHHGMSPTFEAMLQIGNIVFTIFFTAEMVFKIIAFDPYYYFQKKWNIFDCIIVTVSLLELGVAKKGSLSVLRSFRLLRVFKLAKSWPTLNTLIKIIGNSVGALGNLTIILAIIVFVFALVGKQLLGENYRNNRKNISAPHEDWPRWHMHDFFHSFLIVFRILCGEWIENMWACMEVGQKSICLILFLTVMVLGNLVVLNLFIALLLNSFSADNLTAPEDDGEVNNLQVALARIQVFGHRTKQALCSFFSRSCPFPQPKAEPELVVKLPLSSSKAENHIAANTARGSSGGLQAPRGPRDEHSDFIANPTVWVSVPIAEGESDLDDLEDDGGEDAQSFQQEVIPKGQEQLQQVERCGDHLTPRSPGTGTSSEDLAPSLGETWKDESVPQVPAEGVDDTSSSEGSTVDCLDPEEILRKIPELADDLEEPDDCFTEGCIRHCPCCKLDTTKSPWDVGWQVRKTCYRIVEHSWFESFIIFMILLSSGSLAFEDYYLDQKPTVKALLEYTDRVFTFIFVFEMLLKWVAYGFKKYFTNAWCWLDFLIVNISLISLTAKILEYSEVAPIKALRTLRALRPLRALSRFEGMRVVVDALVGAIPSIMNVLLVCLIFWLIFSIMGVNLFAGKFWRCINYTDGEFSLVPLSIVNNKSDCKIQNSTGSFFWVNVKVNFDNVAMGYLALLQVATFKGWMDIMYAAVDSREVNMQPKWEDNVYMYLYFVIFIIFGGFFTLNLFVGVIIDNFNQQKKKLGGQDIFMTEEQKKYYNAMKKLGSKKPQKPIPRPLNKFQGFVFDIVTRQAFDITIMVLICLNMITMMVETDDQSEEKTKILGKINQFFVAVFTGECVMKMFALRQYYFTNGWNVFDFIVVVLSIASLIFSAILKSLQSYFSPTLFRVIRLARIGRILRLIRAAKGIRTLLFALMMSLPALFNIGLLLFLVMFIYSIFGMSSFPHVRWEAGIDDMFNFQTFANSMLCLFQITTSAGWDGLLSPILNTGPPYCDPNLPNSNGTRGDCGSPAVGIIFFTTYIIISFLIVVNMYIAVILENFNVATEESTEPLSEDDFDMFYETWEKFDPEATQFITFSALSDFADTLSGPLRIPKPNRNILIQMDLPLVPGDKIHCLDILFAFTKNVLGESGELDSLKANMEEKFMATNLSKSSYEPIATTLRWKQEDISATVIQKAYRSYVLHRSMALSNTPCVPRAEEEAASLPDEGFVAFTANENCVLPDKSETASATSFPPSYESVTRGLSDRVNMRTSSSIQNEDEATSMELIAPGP", "assay": "Whole-cell voltage-clamp of INa1.8 in HEK1.8 stable cells", "format": "cell-based", "design": "sensitivity of INa1.8 to channel blocker: dose or concentration left out as unconfirmed"}, "[2]": {"test_system": "BK potassium channels", "assay": "BK IKv recording in NG108-15 cells", "format": "cell-based"}, "[3]": {"molecular_target": "T2, hNav1.7 (Homo sapiens, UniProt Q15858)", "T2 construct": "the Nav1.7 antibody detected full-length Nav1.7 only in HEK1.7 cells", "T2 sequence (Q15858 whole entry)": "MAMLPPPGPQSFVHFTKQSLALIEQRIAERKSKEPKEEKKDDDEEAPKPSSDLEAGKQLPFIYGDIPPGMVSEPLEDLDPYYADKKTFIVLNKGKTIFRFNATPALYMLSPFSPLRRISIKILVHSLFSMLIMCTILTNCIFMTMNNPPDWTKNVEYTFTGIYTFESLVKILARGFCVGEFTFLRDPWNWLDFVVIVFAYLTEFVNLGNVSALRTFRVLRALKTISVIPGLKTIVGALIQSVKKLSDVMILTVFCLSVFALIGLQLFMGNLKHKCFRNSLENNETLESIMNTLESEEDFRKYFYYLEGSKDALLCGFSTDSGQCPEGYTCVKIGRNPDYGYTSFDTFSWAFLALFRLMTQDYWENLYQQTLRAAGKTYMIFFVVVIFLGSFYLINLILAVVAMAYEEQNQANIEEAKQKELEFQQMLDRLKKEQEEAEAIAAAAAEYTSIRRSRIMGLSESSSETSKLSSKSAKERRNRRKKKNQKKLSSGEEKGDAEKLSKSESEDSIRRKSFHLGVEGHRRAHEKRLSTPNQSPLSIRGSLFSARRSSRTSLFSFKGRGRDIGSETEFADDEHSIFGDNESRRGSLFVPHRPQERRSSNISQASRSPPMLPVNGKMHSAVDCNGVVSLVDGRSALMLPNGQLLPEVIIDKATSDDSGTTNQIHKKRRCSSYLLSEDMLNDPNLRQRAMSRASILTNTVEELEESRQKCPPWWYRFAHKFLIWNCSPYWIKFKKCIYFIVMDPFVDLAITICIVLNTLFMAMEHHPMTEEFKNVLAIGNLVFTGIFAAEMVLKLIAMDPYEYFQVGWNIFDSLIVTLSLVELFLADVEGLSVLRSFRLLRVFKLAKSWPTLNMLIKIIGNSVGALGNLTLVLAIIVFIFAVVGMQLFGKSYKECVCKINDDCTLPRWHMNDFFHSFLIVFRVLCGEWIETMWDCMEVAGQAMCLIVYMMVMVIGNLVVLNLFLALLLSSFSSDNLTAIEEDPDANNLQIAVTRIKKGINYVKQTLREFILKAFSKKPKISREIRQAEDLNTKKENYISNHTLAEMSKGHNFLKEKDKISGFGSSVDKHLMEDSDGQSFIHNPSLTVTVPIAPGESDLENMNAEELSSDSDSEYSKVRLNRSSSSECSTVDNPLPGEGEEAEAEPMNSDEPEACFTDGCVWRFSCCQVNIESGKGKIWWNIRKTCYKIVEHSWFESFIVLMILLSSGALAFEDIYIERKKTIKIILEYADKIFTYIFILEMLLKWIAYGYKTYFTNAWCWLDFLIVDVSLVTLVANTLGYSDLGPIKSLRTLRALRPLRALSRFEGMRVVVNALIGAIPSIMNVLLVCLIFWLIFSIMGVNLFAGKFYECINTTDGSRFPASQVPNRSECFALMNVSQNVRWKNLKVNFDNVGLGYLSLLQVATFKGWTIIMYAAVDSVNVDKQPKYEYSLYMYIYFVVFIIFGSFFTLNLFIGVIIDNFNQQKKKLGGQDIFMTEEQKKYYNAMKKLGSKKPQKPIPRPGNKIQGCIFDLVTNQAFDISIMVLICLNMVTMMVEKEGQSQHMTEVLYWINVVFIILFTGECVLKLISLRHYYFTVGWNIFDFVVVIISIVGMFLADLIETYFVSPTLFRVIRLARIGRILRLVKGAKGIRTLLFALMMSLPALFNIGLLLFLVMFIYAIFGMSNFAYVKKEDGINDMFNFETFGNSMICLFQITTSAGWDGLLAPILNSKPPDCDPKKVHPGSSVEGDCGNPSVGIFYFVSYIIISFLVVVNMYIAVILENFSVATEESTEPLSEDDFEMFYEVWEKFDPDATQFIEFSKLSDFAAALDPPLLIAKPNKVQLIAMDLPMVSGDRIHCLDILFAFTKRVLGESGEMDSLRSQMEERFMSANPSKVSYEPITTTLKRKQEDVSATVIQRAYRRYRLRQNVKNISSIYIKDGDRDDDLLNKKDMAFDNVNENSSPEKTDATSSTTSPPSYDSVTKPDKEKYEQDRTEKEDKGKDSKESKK", "assay": "Whole-cell voltage-clamp of INa1.7 in HEK1.7 cells after plasmid transfection", "format": "cell-based", "details": "for INa1.7 in presence of NaviPA1 mutants: 3-4 days after transfection", "method": "The stable expression of each construct was verified by transfection into HEK293 cells stably expressing human wild-type Nav1.7 (HEK1.7 cells), followed by immunoblots (IB). Representative tests for GFPlinker (GFP), 1.7iPAs (1, 2, 3, 4, 6) were shown (FIG. 1H, I). Initial screening experiments by whole-cell voltage-clamp of INa1.7 in HEK1.7 cells, transfected with plasmids encoding nine 1.7iPAs (1.7iPA1-9), were performed to characterize the INa1.7. The presence of 9 different 1.7iPAs in HEK1.7 cells on peak INa1.7 density (3 days after transfection) were summarized in FIG. 1F, in which the data points recorded by at least 2 replicates were combined. […] These experiments thus identified 1.7iPA1 and 1.7iPA4 (both derived from ICL1), as well as 1.7iPA6 (from ICL2), as effective iPAs (>50% INa1.7 inhibition). We next focused on the validation of INa1.7 inhibition and channel kinetics by 1.7iPA1, 4, and 6 on HEK1.7 cells in new experiments. […] The 1.7iPA1 peptide is polyampholytic, enriched with 38.6% positively charged arginine or lysine (17/44), 23% of serine (10/44), 14% acidic residues (6/44); and is highly conserved between rodents and humans (FIG. 2F).\nEP recordings were performed, as we described previously with minor modifications at room temperature (22~25° C.) (10, 12), in a blind manner where the electrophysiologist was not aware of the treatment. Patch pipettes 0.9-2.5M2 resistance were formed from borosilicate glass (King Precision Glass Co., Claremont, CA) and fire polished. Recordings were made with an […] amplifier (Molecular Devices, Downingtown, PA). Signals were filtered at 5 kHz and sampled at 20 and 50 kHz (adopted from literature) (13-22) with a Digidata 1440A digitizer and pClamp10 software (Molecular Devices, San Jose, CA). Series resistance (3-5M (2) was monitored before and after the recordings, and data were discarded if the resistance changed by 20%. After achieving the whole-cell recording, capacitance (Cm) and series resistance (Rs) were compensated accordingly.\nSodium channel current (INa) recording in cultured cell lines. Whole-cell voltage-clamp to recording INa was performed in HEK1.7, HEK1.1, HEK1.3, HEK1.6, HEK1.5, HEK1.8, CHO1.8, NG108-15 cells, and F11cells in current-density (I-V) and fast-inactivation voltage protocols. External solution consists of the following (in mM): 110 NaCl, 20 tetraethylammonium-Cl, […]), 0.1 CaCl2, 5 MgCl2, 10 HEPES and 5.56 mM glucose (pH 7.4, 310-315 mosM/L). The internal pipette solution consisted of (in mM): 10 NaCl, 130 CsCl, 5 MgCl2, 5 EGTA, 2.5 Na2+ATP and 10 HEPES (pH 7.2). After formation of a tight seal (maximal leak amplitude <150 pA), membrane resistance and capacitance were determined. The voltage dependence of activation was assessed from holding potential using 50 ms pulses (test-pulse) to a range of test potentials from −100 mV to +50 mV in 5 mV or 10 mV incremental steps with an interval of 5 s. Current density was calculated by normalizing maximal peak currents with cell capacitance. The voltage dependence of steady-state fast inactivation was measured using a two-step protocol. A 500 ms pre-pulse with various potentials ranging from Vhold to +10 mV in 5 or 10 mV incremental steps was used to inactivate the channels. This pre-pulse was immediately followed by a 40 ms test-pulse at 0 mV to determine the remaining fraction of available channels. Inward current measured during the test-pulse to 0 mV was normalized to the cell's maximum test-pulse inward current. To determine the conductance-voltage (I-V) relationships of voltage-dependent activation, the peak current densities during each voltage command step were fitted to a smooth curve with a Boltzmann equation: I=Gmax (V-Erev)/[(1+exp [(V−V50)/k))], which provided the maximum conductance (Gmax). Normalized activation curves were fitted with a Boltzmann equation G/Gmax=1/(1+exp (V50-Vm)/k), where G was calculated as follows: G=I/(Vm−Erev). […]"}, "[4]": {"molecular_target": "T3, Nav1.7 (Homo sapiens, UniProt Q15858)", "T3 construct": "the Nav1.7 antibody detected full-length Nav1.7 only in HEK1.7 cells", "T3 sequence (Q15858 whole entry)": "as above", "assay": "Immunoblot of membrane Nav1.7 in fractionated HEK1.7 cells (intracellular trafficking)", "format": "cell-based", "details": "fractionated HEK1.7 cells after transfection", "method": "Since Nav1.7 is an integral membrane protein, we therefore tested whether NaviPA1 expression in the HEK1.7 cells would interrupt Nav1.7 intracellular trafficking. […] Studies have shown that IDRs in the membrane proteins engage in interactions with the membrane (33). To test whether NaviPA1 interference of Nav1.7 might be via […] of Nav1.7, GFP affinity pull-down by ChromoTek GFP-Trap (ChromoTek, Rosemont, IL) was performed after transfection of GFP-NaviPA1 in HEK1.7 cells using GFPlinker (GFP) and GFP-1.7iPA2 (FIG. 1) as the controls. Cell lysates were prepared by a lysis buffer containing 0.5% Nonidet p40, a ‘non-denaturing’ mild lysis detergent, for preventing interaction breaking and maximizing the retention of NaviPA1-protein interactions (34). […] It has been reported that polybasic IDRs in transmembrane proteins preferably bind to negatively charged lipids (36, 37). We reasoned that NaviPA1 might be able to bind phosphoinositides, and this hypothesis was tested by using phosphatidylinositol phosphate (PIP) strips (Echelon PIP Strip, Salt Lake City, UT). […]\nNaviPA1 is a polybasic arginine/lysine and serine-enriched peptide. […] However, the full-length Nav1.7 membrane integration, which is determined by its TM domains but not intracellular sequences, was unaffected in the presence of NaviPA1 (FIG. 6F). […]"}, "[5]": {"test_system": "DRG neurons", "assay": "Whole-cell current-clamp of dissociated DRG neurons from TNI rats (excitability)", "format": "cell-based, rat", "details": "transduced small/medium-sized DRG neurons, male TNI rats, compared to sham", "text": "Increased excitability of nociceptive PSNs is a fundamental process underlying neuropathic pain (46). We therefore examined whether AAV6-NaviPA1 treatment reverses the enhanced neuronal excitability of nociceptive PSNs following TNI (12, 47), using the whole-cell current-clamp AP recording of DRG dissociated neurons from rats after the treatment protocol shown in FIG. 7B. […] We therefore recorded from randomly chosen small/medium-sized neurons (<35 μm in diameter) (51) in the cultures from dissociated L4 and L5 DRG. Transduced neurons were identified by GFP fluorescence, and excitability was evaluated by measuring rheobase and repetitive action potential (AP) firing during 250 ms current pulses stepping from 100 pA and 280 pA current injection. […]\nWhole-cell current-clamp recording on dissociated DRG neurons (male rats). […] The membrane input resistance was calculated by dividing the ending amplitude of steady-state hyperpolarizing voltage deflection by the injected current (27). […] The baseline potentials were recorded for 20 ms before the stimulus pulses were injected into the neurons. […] AP frequency was determined by quantifying the number of APs elicited in response to depolarizing current injections (250 ms)."}, "[6]": {"test_system": "mechanical hypersensitivity", "details": "after i.p. injection; cited from earlier work"}, "[7]": {"details": "HEK1.7 cells, initial screening"}}, "note": "Read-outs that look alike come from different tables or passages of the source. No end group written: not given here.", "data": [{"compound": "1.7/1.8iPA: disordered polyacidic 38mer from Nav1.7 intracellular loop 2 with AnkG and Pdzd2-I binding domains; dual Nav1.7/1.8 inhibitory peptide aptamer (PGESDLEIMNTEELSSDSDSDYSKEKRNRSSSSECSTV)", "values": [{"measurement": "effect on INa1.8", "setting": "[1]; preliminary data, expression in HEK1.8 cells", "value": "suppresses"}, {"measurement": "effect on BK IKv", "setting": "[2]", "value": "No change"}, {"measurement": "effect on INa1.7", "setting": "[3]; preliminary data, 38mer expressed in HEK1.7 cells", "value": "inhibits"}, {"measurement": "Nav1.7 voltage-gated activation", "setting": "[3]; preliminary data, HEK1.7 cells", "value": "possibly desensitized"}]}, {"compound": "NC1=N[C@H](O)[C@H]2[C@H]3O[C@]4(O)O[C@@H]([C@@H](O)[C@@]2(N1)[C@@H]4O)[C@]3(O)CO", "note": "[TTX, tetrodotoxin, reference compound]", "values": [{"measurement": "sensitivity of INa1.8 to channel blocker", "setting": "[1]", "value": "resistant"}, {"measurement": "Peak INa1.7", "setting": "[3]", "value": "2 ± 1 (10) pA/pF"}]}, {"compound": "NaviPA1mt2: GFP-fused NaviPA1 mutant, alanine substitution for nine arginine or lysine within predicted polybasic NLS (SSKSAKEAANAAAAAAQAMSSGEEKGDDEKLSKSGSEESIRKKS; also: GFP fusion)", "values": [{"measurement": "effect on INa1.8", "setting": "[1]; HEK1.8 cells", "value": "did not change"}, {"measurement": "INa1.7 in presence of NaviPA1 mutants", "setting": "[3]; HEK1.7 cells", "value": "comparable to naïve and GFPNP transfected HEK1.7 cells"}, {"measurement": "membrane Nav1.7 protein / Nav1.7 membrane integration", "setting": "[4]", "value": "not to impede"}]}, {"compound": "NaviPA1mt1: GFP-fused NaviPA1 mutant, alanine substitution for ten serine residues (AAKAAKERRNRRKKKKQKMAAGEEKGDDEKLAKAGAEEAIRKKA; also: GFP fusion)", "values": [{"measurement": "effect on INa1.8", "setting": "[1]; HEK1.8 cells", "value": "did not change"}, {"measurement": "INa1.7 in presence of NaviPA1 mutants", "setting": "[3]; HEK1.7 cells", "value": "comparable to naïve and GFPNP transfected HEK1.7 cells"}, {"measurement": "membrane Nav1.7 protein / Nav1.7 membrane integration", "setting": "[4]", "value": "not to impede"}]}, {"compound": "Nav1.7iPA3: inert peptide from N-terminus of Nav1.7 (SEQ ID NO: 3), used as control NP (SEEKAKEHKDEKKDDEEEGPKPSSDLEAGKQ)", "values": [{"measurement": "rheobase and frequency of evoked APs in neurons from TNI rats", "setting": "[5]", "value": "no significant effects"}, {"measurement": "Activation V50", "setting": "[3]; [7]", "value": "25.4 ± 1.2 (22) mV"}, {"measurement": "Inactivation V50", "setting": "[3]; [7]", "value": "61.6 ± 2 (18) mV"}, {"measurement": "Peak INa1.7", "setting": "[3]; HEK1.7 cells, initial screening after plasmid transfection, value ± spread, (n) in cell", "value": "118 ± 1 (22) pA/pF"}, {"measurement": "effect on peak INa1.7 density", "setting": "[3]; compared to sham transfected HEK1.7 cells", "value": "no significant effects"}]}, {"compound": "COc1cc(NC(=O)c2ccc(-c3ccc(Cl)cc3)o2)cc(OC)c1", "note": "[A803467, reference compound]", "values": [{"measurement": "INa1.8 inhibition", "setting": "[1]; 100 nM, HEK1.8 cells", "value": 85, "unit": "%"}, {"measurement": "sensitivity of INa1.8 to channel blocker", "setting": "[1]; HEK1.8 cells", "value": "sensitive"}]}, {"compound": "NCC1(CC(=O)O)CCCCC1", "note": "[gabapentin, Gabapentin]", "values": [{"measurement": "time of maximal reduction of mechanical hypersensitivity", "setting": "[6]", "value": "30 to 60", "unit": "min"}]}]}
